Test system: mouse splenocytes
Experiment: IFN-γ production by ELISA after stimulating mouse splenocytes with IL-12 containing conditioned media
Assay type: cell-based
Details: summary, compared with commercial IL-12
Experimental: Functionality of mIL-12 was examined by incubating mouse splenocytes with mIL-12 and measuring INF-γ. About 2×10^6 mouse splenocytes were stimulated with either commercial recombinant mouse IL-12 (rIL-12) or the CM from mIL-12 retroviral vector transduced and stably expressing A375 cells for 48 hours. Following stimulation, the CM from each culture was collected and measured for IFN-γ production by ELISA (FIG. 5).
Next, CT26, murine colorectal carcinoma cell line was transduced with the mIL-12 retroviral vector and examined whether or not secreted mIL-12 can produce IFN-γ and activate inflammatory genes from immune cells. About 2×10^6 mouse splenocytes were stimulated with either commercial rIL-12 or the CM from mIL-12 expressing CT26 cells at the concentration of 2 ng/mL for 48 hours. Following stimulation, the supernatant and cells from each group were collected and analyzed for the production of IFN-γ via ELISA and the expression of inflammatory genes via qPCR. […] Some preliminary animal studies were performed by implanting 1.5×10^5 CT26 cells stably expressing luciferase gene or CT26 cells stably expressing luciferase and mIL-12 gene from the retroviral vector cells into the right shoulder flank. […] Bio-luminescence images of animals implanted with either CT26 expressing luciferase or luciferase and mIL-12 tumor cells are shown in FIG. 12. […]

B1: mIL-12: mouse IL-12 heterodimer of P40 and P35 secreted by cells transduced with the mIL-12 retroviral vector (protein, UniProt P43432 23-335; P43431 23-215, looked up)
Interleukin-12 subunit beta: MWELEKDVYVVEVDWTPDAPGETVNLTCDTPEEDDITWTSDQRHGVIGSGKTLTITVKEFLDAGQYTCHKGGETLSHSHLLLHKKENGIWSTEILKNFKNKTFLKCEAPNYSGRFTCSWLVQRNMDLKFNIKSSSSSPDSRAVTCGMASLSAEKVTLDQRDYEKYSVSCQEDVTCPTAEETLPIELALEARQQNKYENYSTSFFIRDIIKPDPPKNLQMKPLKNSQVEVSWEYPDSWSTPHSYFSLKFFVRIQRKKEKMKETEEGCNQKGAFLVEKTSTEVQCKGGNVCVQAQDRYYNSSCSKWACVPCRVRS
Interleukin-12 subunit alpha: RVIPVSGPARCLSQSRNLLKTTDDMVKTAREKLKHYSCTAEDIDHEDITRDQTSTLKTCLPLELHKNESCLATRETSSTTRGSCLPPQKTSLMMTLCLGSIYEDLKMYQTEFQAINAALQNHNHQQIILDKGMLVAIDELMQSLNHNGETLRQKPPVGEADPYRVKMKLCILLHAFSTRVVTINRVMGYLSSA
T-cell activation and IFN-γ production in vitro: as functionally effective as commercial IL-12
